Read-outs that look alike come from different tables or passages of the source.
Experiments:
[1] = biological target: microtubules (taxol-stabilized; polymer of alpha- and beta-tubulin)
[2] = biological target: sea urchin sperm flagellar axonemes (sea urchin); assay: single-molecule fluorescence motility assay
[3] = biological target: sea urchin sperm flagellar axonemes (sea urchin); assay: single-molecule fluorescence motility assay; remark: listed apart in the source
[4] = biological target: sea urchin sperm flagellar axonemes (sea urchin); assay: single-molecule fluorescence motility assay; remark: listed apart in the source
[5] = biological target: sea urchin sperm flagellar axonemes (sea urchin); assay: optical trapping bead assay

Km(MT) of the microtubule-stimulated ATPase, NEM-modified control [1]	Km(MT) of the microtubule-stimulated ATPase, with 200 μM DTNB [1]	Km(MT) of the microtubule-stimulated ATPase, without DTNB [1]	Substance	further results
0.45 μM tubulin	2.35 μM tubulin	0.57 μM tubulin	Cys330/Cys4 Cys-light K560-GFP (neck linker mutant Ser330Cys/Leu4Cys) (from UniProt P33176 1-560) (domain or fragment)	–
1.51 μM tubulin	2.36 μM tubulin	0.62 μM tubulin	Cys334/Cys222 Cys-light K560-GFP (neck linker mutant Glu334Cys/Lys222Cys) (from UniProt P33176 1-560) (domain or fragment)	–
–	–	–	Cys337 Cys-light K560-GFP (neck coiled-coil mutant Ala337Cys) (from UniProt P33176 1-560) (domain or fragment)	association time [2]: 3.7 s
–	–	–	Cys337/Cys344 Cys-light K560-GFP (neck coiled-coil double mutant Ala337Cys/Tyr344Cys) (from UniProt P33176 1-560) (domain or fragment)	association time [3]: 2.5 s; association time [4]: 3.8 s
–	–	–	Cys344 Cys-light K560-GFP (neck coiled-coil mutant Tyr344Cys) (from UniProt P33176 1-560) (domain or fragment)	fold change of the dissociation rate under load (with DTNB against without DTNB) [5]: 1.2 fold; frequency of movement/binding [2]: 2 /min/μm/nM; frequency of movement/binding [4]: 2 /min/μm/nM
